Target: T1, CD6 (UniProt P30203)
T1 sequence (looked up): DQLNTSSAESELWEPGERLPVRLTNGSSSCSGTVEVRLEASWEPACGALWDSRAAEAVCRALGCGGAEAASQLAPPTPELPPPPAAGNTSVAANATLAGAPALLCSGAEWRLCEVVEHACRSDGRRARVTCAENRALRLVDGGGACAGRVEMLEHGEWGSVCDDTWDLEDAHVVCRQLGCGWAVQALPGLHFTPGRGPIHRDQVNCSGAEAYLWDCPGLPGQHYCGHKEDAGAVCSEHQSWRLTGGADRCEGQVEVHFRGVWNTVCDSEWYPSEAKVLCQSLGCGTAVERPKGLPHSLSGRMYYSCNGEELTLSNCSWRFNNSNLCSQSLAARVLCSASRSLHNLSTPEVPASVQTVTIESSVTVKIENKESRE
Assay: binding assay of FIG. 7 on CAR Tregs; method not described

Kd: 50 nM
B1: CD6 CAR (representative CD6 CAR, expressed on Treg) (protein, part only; not given: hinge, transmembrane and signalling domains, part only)
scFv, part: EVQLVESGGGLVKPGGSLKLSCAASGFKFSRYAMSWVRQAPGKRLEWVATISSGGSYIYYPDSVKGRFTISRDNVKNTLYLQMSSLRSEDTAMYYCARRDYDLDYFDSWGQGTLVTVSSGSTSGGGSGGGSGGGGSSDIQMTQSPSSLSASVGDRVTITCKASRDIRSYLTWYQQKPGKAPKTLIYYATSLADGVPSRFSGSGSGQDYSLTISSLESDDTATYYCLQHGESPFTFGSGTKLEIKRA
